From the Human Domainome abundance scans (Beltran et al. 2025)

B1: Lysine-specific demethylase 2B, residues 656 to 722; numbered along this chain, Q8NHM5 (parent)
chain: LPHTAVCLVCGEAGKEDTVEEEEGKFNLMLMECSICNEIIHPGCLKIKESEGVVNDELPNCWECPKC

Variants of: B1
Assay: abundance fitness (aPCA) (normalised: wild type 0, dead -1); higher = more abundant; growth selection in yeast, the domain comes from the species named
Details: Homo sapiens

Abundance fitness, by site and new letter:
V9: L -0.126 | W -0.727 | N 0.239 | M -0.049 | S -0.1 | T 0.127 | A -0.042 | F -0.257 | R -0.297 | P -0.707 | Q -0.635 | G -0.273 | I 0.226 | C -0.817 | D -0.287 | K 0.088 | E -0.053
C7: T -0.491 | Y -1.04 | R -0.908 | D -0.902 | A -0.691
H3: W -0.572 | V 0.234 | P -0.14 | L 0.048 | T 0.147 | K 0.506 | Q -0.015 | E 0.34 | C -0.642 | F -0.359 | G 0.42 | Y -0.328 | A -0.013 | M 0.478 | N 0.177
T4: C -0.395 | W -0.889 | I -0.288 | D -0.2 | N -0.205 | V -0.947 | Q -0.729 | R -0.979 | A -0.889 | M -0.878 | E -0.448 | K -0.964 | G -0.623 | L -1.21 | S -0.345
A13: D -0.138 | F 0.001 | H -0.437 | V 0.085 | Q 0.471 | N -0.618 | M 0.286 | S 0.177 | K 0.175 | E 0.214 | L -0.077 | W -0.228 | T -0.022 | I 0.169 | G 0.387 | C -0.297 | Y -0.117 | R 0.443
G11: Q 0.129 | S -0.113 | H -0.362 | F -0.063 | E -0.174 | M -0.308 | C -0.541 | K 0.222 | T -0.354 | P -0.626 | N -0.382 | I -0.828 | R -0.051 | A -0.139 | L 0.046 | W -0.533
P2: Y 0.713
A5: G -0.338 | Q -0.095 | L -0.004 | C 0.07 | M 0.195 | D -0.726 | W 0.055 | Y 0.625 | N -0.051 | T 0.138 | R 0.073 | S -0.192 | E -0.696 | K 0.038 | P 0.006
C10: Y -0.66 | E -0.329 | V -1 | P -0.517 | H -0.828 | K -0.124 | I -1.04 | S -0.332 | T -0.244 | G -0.277 | W -1.14 | M -0.613 | N -0.259 | A -0.37 | L -1.01 | Q -0.528 | F -0.868 | R -0.53
V6: Q -0.541 | G -0.64 | P -0.124 | A -0.557 | N -0.085 | T 0.12 | K 0.194 | S -0.094 | H 0.409 | W -0.759 | E -0.378 | L -0.004 | D -0.293 | I 0.145 | R -0.285
G14: F 0.104 | Q -0.009 | C -1.04 | N -0.003 | K -0.229 | A -0.428 | L -0.508 | E -0.395 | M -0.172 | I -0.418
E12: C -0.159 | V -0.303 | R -0.016 | M 0.089 | Q 0.078 | N -0.365 | W -0.224 | I -0.357 | A -0.139 | T 0.045 | P -0.458 | G 0.099
L8: G -0.588 | P -0.433 | H -0.281 | M 0.172 | R 0.104 | D -0.573 | E -0.584 | K 0.146 | S -0.34 | I 0.099
